Reference: the supplement of paper PMC11246515
± gives the standard deviation of the averaged measurements.

Assay: total protein half-life in vivo (active degradation + dilution); higher = more stable protein
[1] = E. coli NCM3722 delta-clpP, growth: N-lim chemostat, doubling time 6 h
[2] = E. coli NCM3722 delta-hslV, growth: N-lim chemostat, doubling time 6 h
[3] = E. coli NCM3722 delta-lon, growth: N-lim chemostat, doubling time 6 h
[4] = E. coli NCM3722 delta-smpB, growth: N-lim chemostat, doubling time 6 h
[5] = wild type E. coli NCM3722, growth: N-lim chemostat, doubling time 6 h
[6] = wild type E. coli NCM3722, growth: N-lim chemostat, doubling time 12 h
[7] = wild type E. coli NCM3722, growth: C-lim chemostat, doubling time 3 h
[8] = wild type E. coli NCM3722, growth: C-lim chemostat, doubling time 6 h
[9] = wild type E. coli NCM3722, growth: C-lim chemostat, doubling time 12 h
[10] = wild type E. coli NCM3722, growth: P-lim chemostat, doubling time 6 h
[11] = wild type E. coli NCM3722, growth: P-lim chemostat, doubling time 12 h

## MFTIKTDDLTHPAVQALVAYHISGMLQQSPPESSHALDVQKLRNPTVTFWSVWEGEQLAGIGALKLLDDKHGELKSMRTAPNYLRRGVASLILRHILQVAQDRCLHRLSLETGTQAGFTACHQLYLKHGFADCEPFADYRLDPHSRFLSLTLCENNELP
[1]
  total protein half-life in vivo: 1.46 ± 0.029 h
[2]
  total protein half-life in vivo: 0.809 h
[3]
  total protein half-life in vivo: 0.314 h
[4]
  total protein half-life in vivo: 0.854 ± 0.023 h
[5]
  total protein half-life in vivo: 1.03 ± 0.61 h
[6]
  total protein half-life in vivo: 1.92 h

## MKKVWLNRYPADVPTEINPDRYQSLVDMFEQSVARYADQPAFVNMGEVMTFRKLEERSRAFAAYLQQGLGLKKGDRVALMMPNLLQYPVALFGILRAGMIVVNVNPLYTPRELEHQLNDSGASAIVIVSNFAHTLEKVVDKTAVQHVILTRMGDQLSTAKGTVVNFVVKYIKRLVPKYHLPDAISFRSALHNGYRMQYVKPELVPEDLAFLQYTGGTTGVAKGAMLTHRNMLANLEQVNATYGPLLHPGKELVVTALPLYHIFALTINCLLFIELGGQNLLITNPRDIPGLVKELAKYPFTAITGVNTLFNALLNNKEFQQLDFSSLHLSAGGGMPVQQVVAERWVKLTGQYLLEGYGLTECAPLVSVNPYDIDYHSGSIGLPVPSTEAKLVDDDDNEVPPGQPGELCVKGPQVMLGYWQRPDATDEIIKNGWLHTGDIAVMDEEGFLRIVDRKKDMILVSGFNVYPNEIEDVVMQHPGVQEVAAVGVPSGSSGEAVKIFVVKKDPSLTEESLVTFCRRQLTGYKVPKLVEFRDELPKSNVGKILRRELRDEARGKVDNKA
[1]
  total protein half-life in vivo: 5.82 ± 0.16 h
[2]
  total protein half-life in vivo: 5.05 ± 0.23 h
[3]
  total protein half-life in vivo: 5.34 ± 0.82 h
[4]
  total protein half-life in vivo: 4.279 ± 0.022 h
[7]
  total protein half-life in vivo: 1.68 ± 0.16 h
[8]
  total protein half-life in vivo: 3.98 ± 0.57 h
[9]
  total protein half-life in vivo: 6.59 ± 0.46 h
[5]
  total protein half-life in vivo: 4.879 ± 0.022 h
[6]
  total protein half-life in vivo: 10.9 ± 1.6 h
[10]
  total protein half-life in vivo: 4.93 ± 0.11 h
[11]
  total protein half-life in vivo: 10.8 ± 1.1 h

## MTKMSRYALITALAMFLAGCVGQREPAPVEEVKPAPEQPAEPQQPVPTVPSVPTIPQQPGPIEHEDQTAPPAPHIRHYDWNGAMQPMVSKMLGADGVTAGSVLLVDSVNNRTNGSLNAAEATETLRNALANNGKFTLVSAQQLSMAKQQLGLSPQDSLGTRSKAIGIARNVGAHYVLYSSASGNVNAPTLQMQLMLVQTGEIIWSGKGAVSQQ [P0AB38]
E. coli NCM3722 delta-clpP delta-lon delta-hslV, growth: N-lim chemostat, doubling time 6 h
  total protein half-life in vivo: 5.22 ± 0.26 h
[1]
  total protein half-life in vivo: 5.7 ± 0.39 h
[2]
  total protein half-life in vivo: 6.59 ± 0.23 h
[3]
  total protein half-life in vivo: 6.43 ± 0.46 h
[4]
  total protein half-life in vivo: 6.495 ± 0.062 h
[7]
  total protein half-life in vivo: 3.38 ± 0.095 h
[8]
  total protein half-life in vivo: 6.19 ± 0.46 h
[9]
  total protein half-life in vivo: 10.9 ± 0.91 h
[5]
  total protein half-life in vivo: 6.102 ± 0.019 h
[6]
  total protein half-life in vivo: 12.3 ± 0.41 h
[10]
  total protein half-life in vivo: 5.94 ± 0.24 h
[11]
  total protein half-life in vivo: 11.7 ± 1.2 h
